{"source": "paper PMC6585716", "about": "(Biopolymers, 2017)", "target": "Recombinant human vascular endothelial growth factor (VEGF165) (human, UniProt P15692-4 1-191)", "sequence (P15692 other isoform, or with tags, fused parts or gaps)": "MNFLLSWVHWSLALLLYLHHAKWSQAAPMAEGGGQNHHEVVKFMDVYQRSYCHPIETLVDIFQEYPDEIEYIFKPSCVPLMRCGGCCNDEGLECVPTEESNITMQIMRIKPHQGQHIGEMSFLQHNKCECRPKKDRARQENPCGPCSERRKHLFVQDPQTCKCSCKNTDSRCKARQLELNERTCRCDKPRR", "conditions": "both partners purified", "note": "code X = not defined here; Az4 = not defined here"}
{"binder": "{code X}-VEPNCDIHVMWEWECFERL-Az4 (cysteine pairing not given here; reading uncertain, also called anti-VEGF cyclic peptide ligand)", "note": "[AnchorV (X-VEPNCDIHVMWEWECFERL-Az4)]", "values": [{"measurement": "EC50", "result": "140 ± 21", "unit": "nM"}]}
